Data from article PMC12851578.
Where “and” joins values, the source holds several entries; their conditions need not be identical. Equal values may be shown once.

Molecular target: actin purified from muscle (F-actin) (Bos taurus (ground beef)) (UniProt P68138)
Assay: co-sedimentation

With “Lfat1 ABD [change], recombinant (from UniProt Q5ZVQ3 138-355) (domain or fragment)” the Kd was 19.1 µM and 16.3 µM and 63.7 µM.
